Results published in patent US20170165335A1 (IMMATICS BIOTECHNOLOGIES, published 2017).

These binders were tested against T1, peptide-receptive MHC class I molecule (HLA-A*02:01 with beta-2-microglobulin) of the UV-ligand exchange assay (human) (assay: UV-ligand exchange + anti-b2m ELISA; peptide exchange yield grade (++++ = >=75%)).
From the text: (§1) Candidate peptides for T cell based therapies according to the present invention were further tested for their MHC binding capacity (affinity). The individual peptide-MHC complexes were produced by UV-ligand exchange, where a UV-sensitive peptide is cleaved upon UV-irradiation, and exchanged with the peptide of interest as analyzed. Only peptide candidates that can effectively bind and stabilize the peptide-receptive MHC molecules prevent dissociation of the MHC complexes. To determine the yield of the exchange reaction, an ELISA was performed based on the detection of the light chain (β2m) of stabilized MHC complexes. The assay was performed as generally described in Rodenko et al. (Rodenko et al., 2006).
(§2) 96 well MAXISorp plates (NUNC) were coated over night with 2 ug/ml streptavidin in PBS at room temperature, washed 4× and blocked for 1 h at 37° C. in 2% BSA containing blocking buffer. Refolded HLA-A*02:01/MLA-001 monomers served as standards, covering the range of 15-500 ng/ml. Peptide-MHC monomers of the UV-exchange reaction were diluted 100 fold in blocking buffer. Samples were incubated for 1 h at 37° C., washed four times, incubated with 2 ug/ml HRP conjugated anti-β2m for 1 h at 37° C., washed again and detected with TMB solution that is stopped with […]. Absorption was measured at 450 nm. Candidate peptides that show a high exchange yield (preferably higher than 50%, most preferred higher than 75%) are generally preferred for a generation and production of antibodies or fragments thereof, and/or T cell receptors or fragments thereof, as they show sufficient avidity to the MHC molecules and prevent dissociation of the MHC complexes.
In the case of MLMPVHFLL (synthetic peptide), the peptide exchange yield is reported as ≥ 75%.
In the case of KMDASLGNLFA (synthetic peptide), the peptide exchange yield is reported as ≥ 75%.
For FLGKVVIDV (synthetic peptide), the peptide exchange yield was ≥ 75%.

These binders were tested against T1, peptide-receptive MHC class I molecule … (assay: UV-ligand exchange + anti-b2m ELISA; peptide exchange yield grade (++ = 20%-49%)).
From the text: as §1, §2
With FLAQQESEI (synthetic peptide) the peptide exchange yield was 20 to 49%.
Work on FLVDGSSAL (synthetic peptide) yielded a peptide exchange yield of 20 to 49%.
LLAGQTYHV (synthetic peptide) showed a peptide exchange yield of 20 to 49%.
For VLAKPGVISV (synthetic peptide), the peptide exchange yield was 20 to 49%.
SLANNVTSV (synthetic peptide) showed a peptide exchange yield of 20 to 49%.
In the case of APVNVTTEVKSV (synthetic peptide), the peptide exchange yield is reported as 20 to 49%.
In the case of FLKSGDAAIV (synthetic peptide), the peptide exchange yield is reported as 20 to 49%.
SLLDDELMSL (synthetic peptide) showed a peptide exchange yield of 20 to 49%.
With RLAGDGVGAV (synthetic peptide) the peptide exchange yield was 20 to 49%.
With SLQEEHVAVA (synthetic peptide) the peptide exchange yield was 20 to 49%.
In the case of HLMDQPLSV (synthetic peptide), the peptide exchange yield is reported as 20 to 49%.
Binder TLDGAAVNQV (synthetic peptide) has a peptide exchange yield of 20 to 49%.
In the case of SLSAFTLFL (synthetic peptide), the peptide exchange yield is reported as 20 to 49%.
For GLLEELVTV (synthetic peptide), the peptide exchange yield was 20 to 49%.
In the case of SLKEEVGEEAI (synthetic peptide), the peptide exchange yield is reported as 20 to 49%.
Binder SLKEEVGEEAIV (synthetic peptide) has a peptide exchange yield of 20 to 49%.
YLQGQRLDNV (synthetic peptide) was tested, and the peptide exchange yield was 20 to 49%.
With YLQGQRLDNVV (synthetic peptide) the peptide exchange yield was 20 to 49%.
Binder VVDEGPTGV (synthetic peptide) has a peptide exchange yield of 20 to 49%.
SLAAAAGKQEL (synthetic peptide) showed a peptide exchange yield of 20 to 49%.
In the case of SLDSRLELA (synthetic peptide), the peptide exchange yield is reported as 20 to 49%.
VMDSGDGVTHTV (synthetic peptide) showed a peptide exchange yield of 20 to 49%.
Binder GLLKKINSV (synthetic peptide) has a peptide exchange yield of 20 to 49%.
Work on TLLSNLEEA (synthetic peptide) yielded a peptide exchange yield of 20 to 49%.
With FILDSAETTTL (synthetic peptide) the peptide exchange yield was 20 to 49%.
SVDVSPPKV (synthetic peptide) showed a peptide exchange yield of 20 to 49%.
Binder KLVDKSTEL (synthetic peptide) has a peptide exchange yield of 20 to 49%.
Work on RLDQRVPQI (synthetic peptide) yielded a peptide exchange yield of 20 to 49%.
VLLDKIKNLQV (synthetic peptide) gave a peptide exchange yield of 20 to 49%.
TFAPVNVTTEVKSV (synthetic peptide) was tested, and the peptide exchange yield was 20 to 49%.
Binder ALTQTGGPHV (synthetic peptide) has a peptide exchange yield of 20 to 49%.
ALMLQGVDL (synthetic peptide) showed a peptide exchange yield of 20 to 49%.
For RMVEEIGVEL (synthetic peptide), the peptide exchange yield was 20 to 49%.
Binder VLLSEIEVA (synthetic peptide) has a peptide exchange yield of 20 to 49%.
For YLDAMMNEA (synthetic peptide), the peptide exchange yield was 20 to 49%.
Binder KLFNLSKEDDV (synthetic peptide) has a peptide exchange yield of 20 to 49%.
Binder YLEEDVYQL (synthetic peptide) has a peptide exchange yield of 20 to 49%.
YLYDSETKNA (synthetic peptide) was tested, and the peptide exchange yield was 20 to 49%.
VLISLKQAPLV (synthetic peptide) was tested, and the peptide exchange yield was 20 to 49%.
With AQQESEIAGI (synthetic peptide) the peptide exchange yield was 20 to 49%.
IVDDLTINL (synthetic peptide) showed a peptide exchange yield of 20 to 49%.
With FLFDGSANLV (synthetic peptide) the peptide exchange yield was 20 to 49%.

Each binder was assayed against T1, peptide-receptive MHC class I molecule … (assay: UV-ligand exchange + anti-b2m ELISA; peptide exchange yield grade (+ = <20%)).
From the text: as §1, §2
In the case of SLAAAAGKQELA (synthetic peptide), the peptide exchange yield is reported as < 20%.
NLKGTFATL (synthetic peptide) was tested, and the peptide exchange yield was < 20%.
In the case of SSFGGLGGGSV (synthetic peptide), the peptide exchange yield is reported as < 20%.

The binders below were run against T1, peptide-receptive MHC class I molecule … (assay: UV-ligand exchange + anti-b2m ELISA; peptide exchange yield grade (+++ = 50%-75%)).
From the text: as §1, §2
In the case of FLYKIIDEL (synthetic peptide), the peptide exchange yield is reported as 50 to 75%.
FVSEIVDTV (synthetic peptide) gave a peptide exchange yield of 50 to 75%.
FLQEYLDAI (synthetic peptide) showed a peptide exchange yield of 50 to 75%.
For ALLTFMEQV (synthetic peptide), the peptide exchange yield was 50 to 75%.
NLVEKTPALV (synthetic peptide) was tested, and the peptide exchange yield was 50 to 75%.
FLLDGSEGV (synthetic peptide) was tested, and the peptide exchange yield was 50 to 75%.
With ALAAILTRL (synthetic peptide) the peptide exchange yield was 50 to 75%.
LLVDDSFLHTV (synthetic peptide) was tested, and the peptide exchange yield was 50 to 75%.
With GLLDYATGAIGSV (synthetic peptide) the peptide exchange yield was 50 to 75%.
GLAAFKAFL (synthetic peptide) was tested, and the peptide exchange yield was 50 to 75%.
FLVSNMLLAEA (synthetic peptide) showed a peptide exchange yield of 50 to 75%.
ALLSGLREA (synthetic peptide) gave a peptide exchange yield of 50 to 75%.
In the case of KMFFLIDKV (synthetic peptide), the peptide exchange yield is reported as 50 to 75%.
